In article PMC4148193, “Chromatin Insulator Factors Involved in Long-Range DNA Interactions and Their Role in the Folding of the Drosophila Genome” (PLoS Genetics, 2014):

Columns and labels:
[1] = molecular target: T1, CP190 (Drosophila, UniProt Q24478 1-1096); test: fluorescence anisotropy; Hill n=2±0.3; 20 uM ZnSO4; FA/FCS: 30 mM Tris/HCl pH 7.5, 100 mM NaCl, 20 uM ZnSO4, 5 mM mercaptoethanol, 0.01 mg/ml BSA, 0.004% Tween20, 2.5 nM DNA; EMSA: 150 mM NaCl, 30 mM Tris/HCl pH; settings: protein: recombinant; tags: N-term 6xHis; blunt
T1 sequence: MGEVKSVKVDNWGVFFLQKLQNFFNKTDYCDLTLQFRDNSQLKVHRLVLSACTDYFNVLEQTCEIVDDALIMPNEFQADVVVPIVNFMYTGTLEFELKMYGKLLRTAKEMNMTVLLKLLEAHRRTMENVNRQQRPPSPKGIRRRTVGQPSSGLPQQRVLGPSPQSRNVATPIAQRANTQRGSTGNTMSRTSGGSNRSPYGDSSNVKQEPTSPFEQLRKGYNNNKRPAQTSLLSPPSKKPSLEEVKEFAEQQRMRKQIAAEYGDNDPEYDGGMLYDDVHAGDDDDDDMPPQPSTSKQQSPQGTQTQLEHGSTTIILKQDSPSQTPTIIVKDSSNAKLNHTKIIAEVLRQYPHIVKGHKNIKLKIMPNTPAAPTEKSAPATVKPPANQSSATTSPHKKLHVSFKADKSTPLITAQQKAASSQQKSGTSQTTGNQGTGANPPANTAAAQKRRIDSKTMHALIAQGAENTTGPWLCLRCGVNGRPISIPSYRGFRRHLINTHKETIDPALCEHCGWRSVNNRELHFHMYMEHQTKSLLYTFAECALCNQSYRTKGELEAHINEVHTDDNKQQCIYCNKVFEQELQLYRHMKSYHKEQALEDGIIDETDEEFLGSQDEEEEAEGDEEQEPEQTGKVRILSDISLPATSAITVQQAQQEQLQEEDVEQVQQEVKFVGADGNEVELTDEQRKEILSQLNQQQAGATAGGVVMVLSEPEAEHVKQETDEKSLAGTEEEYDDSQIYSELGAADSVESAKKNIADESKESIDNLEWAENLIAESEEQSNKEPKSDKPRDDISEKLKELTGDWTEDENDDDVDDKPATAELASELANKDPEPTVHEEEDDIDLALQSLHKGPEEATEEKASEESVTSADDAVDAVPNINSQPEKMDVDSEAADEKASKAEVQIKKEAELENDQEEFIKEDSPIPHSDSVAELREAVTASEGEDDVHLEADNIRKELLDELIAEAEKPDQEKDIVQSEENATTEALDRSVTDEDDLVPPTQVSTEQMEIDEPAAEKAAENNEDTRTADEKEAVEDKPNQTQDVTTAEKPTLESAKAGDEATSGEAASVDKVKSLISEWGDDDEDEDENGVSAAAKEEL

[2] = molecular target: T2, CP190-BTB/POZ (Drosophila, UniProt Q24478 1-134); test: fluorescence anisotropy; FA/FCS: 30 mM Tris/HCl pH 7.5, 100 mM NaCl, 20 uM ZnSO4, 5 mM mercaptoethanol, 0.01 mg/ml BSA, 0.004% Tween20, 2.5 nM DNA; EMSA: 150 mM NaCl, 30 mM Tris/HCl pH; settings: protein: recombinant; tags: His; chain copies: 2; blunt
T2 sequence: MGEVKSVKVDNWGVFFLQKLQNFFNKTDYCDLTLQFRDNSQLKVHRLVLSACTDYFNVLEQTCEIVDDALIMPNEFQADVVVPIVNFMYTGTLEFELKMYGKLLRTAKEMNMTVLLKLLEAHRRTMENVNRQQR

[3] = molecular target: T3, Chromator-C (Drosophila, UniProt Q86BS3 601-926); test: as above; settings: protein: recombinant; tags: N-term 6xHis; blunt
T3 sequence: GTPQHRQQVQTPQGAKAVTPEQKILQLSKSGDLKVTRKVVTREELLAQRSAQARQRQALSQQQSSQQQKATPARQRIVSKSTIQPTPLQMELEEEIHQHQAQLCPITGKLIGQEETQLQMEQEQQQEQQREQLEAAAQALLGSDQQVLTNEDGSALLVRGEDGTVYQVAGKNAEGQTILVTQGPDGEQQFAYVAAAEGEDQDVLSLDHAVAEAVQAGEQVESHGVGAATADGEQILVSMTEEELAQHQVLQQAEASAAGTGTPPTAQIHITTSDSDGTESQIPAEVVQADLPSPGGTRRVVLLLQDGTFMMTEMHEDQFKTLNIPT

[4] = molecular target: T4, BEAF32 (BEAF32B);Chromator-C (Drosophila;Drosophila, UniProt Q94513;Q86BS3 1-282;601-926, |); test: FCS/PIE-FCCS; 800 nM BEAF32, 100 nM Chromator-C; diffusion time slightly decreased, BEAF32 stays bound, no bridging; FA/FCS: 30 mM Tris/HCl pH 7.5, 100 mM NaCl, 20 uM ZnSO4, 5 mM mercaptoethanol, 0.01 mg/ml BSA, 0.004% Tween20, 2.5 nM DNA; EMSA: 150 mM NaCl, 30 mM Tris/HCl pH; settings: protein: recombinant;recombinant; tags: N-term MBP; C-term 6xHis;N-term 6xHis; blunt
T4 sequence 1: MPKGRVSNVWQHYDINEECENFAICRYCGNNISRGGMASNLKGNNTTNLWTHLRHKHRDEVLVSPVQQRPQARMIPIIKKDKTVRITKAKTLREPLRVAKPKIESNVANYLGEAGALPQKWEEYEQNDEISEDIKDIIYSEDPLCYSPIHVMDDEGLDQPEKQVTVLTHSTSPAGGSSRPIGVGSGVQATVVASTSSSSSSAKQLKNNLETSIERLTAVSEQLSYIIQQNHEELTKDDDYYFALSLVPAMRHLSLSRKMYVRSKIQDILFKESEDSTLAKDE
T4 sequence 2: T3 sequence

[5] = molecular target: T1, CP190; test: competition; unlabeled DNAS vs 2.5 nM Cy3B-DNAS, 200 nM CP190; FA/FCS: 30 mM Tris/HCl pH 7.5, 100 mM NaCl, 20 uM ZnSO4, 5 mM mercaptoethanol, 0.01 mg/ml BSA, 0.004% Tween20, 2.5 nM DNA; EMSA: 150 mM NaCl, 30 mM Tris/HCl pH; settings: protein: recombinant; tags: N-term 6xHis; blunt

B1: DNAS (dsDNA)
DNA 1: AGAAGTCAGCGCGATAGCATCGATATTTTCGTGACACGCTTGTCATCCGATAGGTAGT
DNA 2: ACTACCTATCGGATGACAAGCGTGTCACGAAAATATCGATGCTATCGCGCTGACTTCT
Kd [1]: 109 ± 5 nM
binding result [2]: no binding
binding result [3]: no binding
binding result [4]: binds
Ki [5]: 17 ± 4 nM
